The target of the assay is endogenous Galectin-9 on CRL-2134 cells (human) (UniProt O00182). The assay is described as follows: cell-based binding assay, flow cytometry on CRL-2134 cells. Background: In flow cytometry, cells or beads pass a laser one at a time.
endogenous Galectin-9 on CRL-2134 cells (human), sequence (O00182 whole entry): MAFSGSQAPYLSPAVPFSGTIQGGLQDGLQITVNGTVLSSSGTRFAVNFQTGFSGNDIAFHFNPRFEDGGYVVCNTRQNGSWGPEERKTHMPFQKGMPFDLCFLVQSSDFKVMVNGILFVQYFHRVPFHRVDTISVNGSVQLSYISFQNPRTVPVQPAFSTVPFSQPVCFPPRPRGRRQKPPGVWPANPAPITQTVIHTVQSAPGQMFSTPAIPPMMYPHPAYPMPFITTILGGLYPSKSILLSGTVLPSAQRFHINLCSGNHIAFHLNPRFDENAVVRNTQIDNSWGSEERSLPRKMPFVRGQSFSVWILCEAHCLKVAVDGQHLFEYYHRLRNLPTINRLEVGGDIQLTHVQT

B1: G9.2-17 hIgG1 (antibody, V domains shown)
VH: EVQLVESGGGLVQPGGSLRLSCAASGFTVSSSSIHWVRQAPGKGLEWVAYISSSSGYTYYADSVKGRFTISADTSKNTAYLQMNSLRAEDTAVYYCARYWSYPSWWPYRGMDYWGQGTLVTVSS
VL: DIQMTQSPSSLSASVGDRVTITCRASQSVSSAVAWYQQKPGKAPKLLIYSASSLYSGVPSRFSGSRSGTDFTLTISSLQPEDFATYYCQQSSTDPITFGQGTKVEIKR
For orientation: Kd means the concentration at which binding is half-saturated. On to B1, for which the equilibrium dissociation constant (Kd) was found to be 0.41 nM.

B2: G9.2-17 mIgG1 (antibody, V domains shown)
VH: B1 VH
VL: B1 VL
The molecule B2 had a dissociation constant (Kd) of 2.91 nM.
